Legend:
scavenger receptor CD36 [1] = assay: flow cytometry on CD36-transfected CHO cells, rAv17 at 2.5 µg/ml; detected with an anti-cystatin mAb and a FITC secondary antibody; baseline 20%
scavenger receptor CD36 [2] = assay: flow cytometry on CD36-transfected CHO cells, rAv17 at 5 µg/ml; detected with an anti-cystatin mAb and a FITC secondary antibody; baseline 20%

recombinant Acanthocheilonema viteae cystatin (rAv17)
fluorescence positive cells (scavenger receptor CD36 [1]): 71%
fluorescence positive cells (scavenger receptor CD36 [2]): 89%
